Assay results as given in article PMC5551713 (The Journal of Cell Biology, 2017).
One block for each molecule: values may come before it.

Assays:
Experiment in all cases: negative-stain TEM
[1] = target: muscle PFK1 (PFKM), phosphofructokinase-1, 780-amino-acid isoform 2 (human) (UniProt P08237)
[2] = target: platelet PFK1 (PFKP), phosphofructokinase-1 (human) (UniProt Q01813)
[3] = target: PFKL-H199Y, point mutant at the sugar substrate binding site (human) (UniProt P17858)
negative-stain TEM = target: the molecule itself

Molecule: muscle PFK1 (PFKM), phosphofructokinase-1, 780-amino-acid isoform 2 (from UniProt P08237-1 1-780) (enzyme)
stoichiometry N [1]: 4

Molecule: platelet PFK1 (PFKP), phosphofructokinase-1 (from UniProt Q01813 1-784) (enzyme)
stoichiometry N [2]: 4

stoichiometry N [3]: 4
Molecule: PFKL-H199Y, point mutant at the sugar substrate binding site (from UniProt P17858-1 1-780) (enzyme)

B1: liver PFK1 (PFKL), phosphofructokinase-1, 780-amino-acid isoform b (enzyme, human, UniProt P17858-1 1-780, looked up)
chain: MAAVDLEKLRASGAGKAIGVLTSGGDAQGMNAAVRAVTRMGIYVGAKVFLIYEGYEGLVEGGENIKQANWLSVSNIIQLGGTIIGSARCKAFTTREGRRAAAYNLVQHGITNLCVIGGDGSLTGANIFRSEWGSLLEELVAEGKISETTARTYSHLNIAGLVGSIDNDFCGTDMTIGTDSALHRIMEVIDAITTTAQSHQRTFVLEVMGRHCGYLALVSALASGADWLFIPEAPPEDGWENFMCERLGETRSRGSRLNIIIIAEGAIDRNGKPISSSYVKDLVVQRLGFDTRVTVLGHVQRGGTPSAFDRILSSKMGMEAVMALLEATPDTPACVVTLSGNQSVRLPLMECVQMTKEVQKAMDDKRFDEATQLRGGSFENNWNIYKLLAHQKPPKEKSNFSLAILNVGAPAAGMNAAVRSAVRTGISHGHTVYVVHDGFEGLAKGQVQEVGWHDVAGWLGRGGSMLGTKRTLPKGQLESIVENIRIYGIHALLVVGGFEAYEGVLQLVEARGRYEELCIVMCVIPATISNNVPGTDFSLGSDTAVNAAMESCDRIKQSASGTKRRVFIVETMGGYCGYLATVTGIAVGADAAYVFEDPFNIHDLKVNVEHMTEKMKTDIQRGLVLRNEKCHDYYTTEFLYNLYSSEGKGVFDCRTNVLGHLQQGGAPTPFDRNYGTKLGVKAMLWLSEKLREVYRKGRVFANAPDSACVIGLKKKAVAFSPVTELKKDTDFEHRMPREQWWLSLRLMLKMLAQYRISMAAYVSGELEHVTRRTLSMDKGF
stoichiometry N (negative-stain TEM): 4
